T1: SspB protein (ClpX adaptor) (Escherichia coli, UniProt P0AFZ3 1-165)
T1 sequence: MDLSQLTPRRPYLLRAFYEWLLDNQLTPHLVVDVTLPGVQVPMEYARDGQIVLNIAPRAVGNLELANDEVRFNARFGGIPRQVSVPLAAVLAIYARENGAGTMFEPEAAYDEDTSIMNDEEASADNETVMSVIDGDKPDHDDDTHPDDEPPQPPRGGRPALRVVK

B1: eGFP-AANDENYSENY (peptide)
chain: eGFP-AANDENYSENY
modifications: not fully specified
B2: eGFP-AANDENYALAA (peptide)
chain: eGFP-AANDENYALAA
modifications: not fully specified
B3: eGFP-AANDENYSENYADAS (peptide)
chain: eGFP-AANDENYSENYADAS
modifications: not fully specified
B4: eGFP-AANDENYADAS (peptide)
chain: eGFP-AANDENYADAS
modifications: not fully specified

Ends that are not written are not given here.

The target of this assay is T1, SspB protein (ClpX adaptor). In words: MST.
With B1, the equilibrium dissociation constant (Kd) was 100 nM.
The value for B2 was 80 nM.
Regarding B3, the Kd came out at 300 nM.
Under B4 stands 330 nM.
